# According to publication PMC10273302 (Science (New York, N.Y.), 2023):
# T1: EBV minimal peptide PPSTSSKLRPRWTFT (spotted for dot blot) (Human herpesvirus 4 (Epstein-Barr …))
# T1 construct: also called EBV gp350 minimal peptide; 72153; source: "recombinant peptide" spotted on nitrocellulose
# T1 chain: PPSTSSKLRPRWTFT
# Biological target: T1, EBV minimal peptide PPSTSSKLRPRWTFT …
# Assay: far-Western, overlay or dot blot
# Details: one partner purified
row,Binder,binding result
1,"EBV_c57 (antibody, V domains shown, recombinant human IgG) VH: QVQLVQSGAEVKKPGASVKVSCKASGYTFTSYDINWVRQAPGQGLEWLGWMNPNNENTGYAQKFQGRIIMTRNTSIDTVYMELSSLRSEDTAVYYCEAIAAVSATEGAFDIWGQGTMVTVSS VL: not shown",binds
2,"EBV_c120 (antibody, V domains shown, recombinant human IgG; source: Expi293 or ExpiCHO, recombinant; filtered culture supernatant) VH: QVHLVQSGAEVKKPGASVKVSCKASGFAFTTYDINWVRQAAGQGLEWMGWMNPNSGNRGYAQKFQGRVTMTRNTSITTAYMELTSLTSEDTAVYYCARAYCNSNRCSPELFDPWGQGTQVTVSS VL: QSVLTQPPSVSAAPGQMVTISCSGSSSNIGNNFVSWYQQLPGTVPKYVIYDNNKRPSGIPERFSGSRSGTSATLGITGLQTGDEADYYCATWDSSLRGVVFGGGTKLTVL",binds
3,"EBV_c10 (antibody, V domains shown, recombinant human IgG) VH: QVHLVQSGAEVKKPGASVKVSCQASGFAFTTYDINWVRQAAGHGLEWMGWMNPNSGNRGYAQKFQGRVTMTRNTSITTAYMELTSLTPDDTAVYYCARAFCNSNRCSPELFDPWGQGTQVTVSS VL: QSVLTQPPSVSAAPGQMVTISCSGGSSNIGNNFVSWYQQIPGTVPKYVIYDNDKRPSGIPERFSGSRSGTSATLVITGLQTGDEADYYCATWDNSLRGVVFGGGTKLTVL",binds
4,"EBV_c63 (antibody, V domains shown, recombinant human IgG) VH: QVQLVQSGAEVKKPGASVKVSCKASGYTFTSYYIHWVRQAPGQGLEWMGIINPSDGTTDYAQRLQGRVTMTRVTSTSTVYMELSSLRSEDTAVYYCARDREQMVRGIIISNGLDVWGQGTTVTVSS VL: QSALTQPASVSGSPGQSITFSCTGTSSDVGGYNFVSWYQQHPGKAPKLMIYDVTNRPSGVSNRFSGSKSGNTASLTISGLQAEDEADYYCSSYTSSSTLVFGTGTKVTVL",binds
5,"EBV_c124 (antibody, V domains shown, recombinant human IgG) VH: QVQLVQSGAEVRKPGASVKVSCKASGYTFNTYFIQWVRQAPGQGLEWMGVINSSGSGTRYAPKFRGRVILTRDTSTSTAFMELSSLTSEDTAVYYCARAAEGDYGDSALDYWGQGTLVSVSS VL: SYELTQPHSVSVSPGQTASIACSGEKLDKKYTCWYQQRPGQSPVLVIYQDRKRPSGIPERFSGSNSGNTATLTISGTQAIDEADYYCQVWDSNTVVFGGGTKLTVL",binds
6,"EBV_c124 with light chain D51K (antibody, V domains shown, source: Expi293 or ExpiCHO, recombinant; filtered culture supernatant) VH: QVQLVQSGAEVRKPGASVKVSCKASGYTFNTYFIQWVRQAPGQGLEWMGVINSSGSGTRYAPKFRGRVILTRDTSTSTAFMELSSLTSEDTAVYYCARAAEGDYGDSALDYWGQGTLVSVSS VL: SYELTQPHSVSVSPGQTASIACSGEKLDKKYTCWYQQRPGQSPVLVIYQKRKRPSGIPERFSGSNSGNTATLTISGTQAIDEADYYCQVWDSNTVVFGGGTKLTVL",binds
7,"EBV_c9 (antibody, V domains shown, recombinant human IgG) VH: QVQLVQSGAEVKKPGASVKISCKASGYNFTNYYMHWVRQAPGQGLEWMGVINPHDNTNYAQKFRGRFIVTKDTSTTTLHMELRGLRSEDTAVYYCARGPDYVGISSPFDYWGQGTLVTVSS VL: SHELTQPPSVPVSPGQTARITCSGDGLPKNYAYWYQQKSGQAPVLVIYEDRKRPSGIPERFSGSSSGTMATLTISGAQVEDEADYYCYSGDSNGNHWVFGGGTKLTVL",binds
8,"EBV_c19 (antibody, V domains shown, recombinant human IgG) VH: QVQLVQSGAEVKKPGASVKLSCKASGYNFTNYYMHWVRQAPGQGLEWMGVINHGGLTNYAQRFRGRFIVTRDTSTTTLHMELRSLRSEDTAVYYCARGPDYGGNSSPFDNWGQGTLVTVSS VL: SHELTQPPSVPVSPGQTARITCSGDGLPKNYAYWYQQKSGQAPVLVIYEDRKRPSGIPERFSGSSSGTMATLTISGAQVEDEADYYCYSGDINGNHWVFGGGTKLTVL",binds
9,"EBV_c149 (antibody, V domains shown, recombinant human IgG) VH: QVQLVQSGAEVKKPGASVKVSCKASGYNFTNYYMHWVRQAPGQGLEWMGVINPDGGSTSYAQKFRGRFIVTRDTSTTTLHMELRSLRSEDTAVYFCARGPDYVGISSPFDFWGQGTLVTVSS VL: SHELTQPPSVPVSPGQTARITCSGDGLPKNYAYWYQQKSGQAPVLVIYEDRKRPSGIPERFSGSSSGTMATLTISGAQVEDEADYYCYSGDSNGNHWVFGGGTKLTVL",binds
10,"EBV_c61 (antibody, V domains shown, recombinant human IgG) VH: QVQLVQSGAEVKKPGASVKVSCKASGYNFTNYFMHWVRQAPGQGLEWMGVLNSGANTNYAQKFRGRFIVTRDTSTTTLHMELRSLRSEDTAVYYCARGPDSSGISSPFDYWGQGTLVTVSS VL: SHELTQPPSVPVSPGQTARITCSGDGLPKNFAYWYQKKSGQAPVLVIYEDRKRPSGIPERFSGSSSGTTATLTISGAQEDDEAEYYCYSGDTNGNHWVFGGGTKLTVL",binds
11,"EBV_c101 (antibody, V domains shown, recombinant human IgG) VH: QVHLVQSGTEVKKPGASVKVSCKASGYTFIDYFIHWVRQAPGQGLEWMGIINPGGGSTSYAQKFRGRVTVTRDASTSTVYLELRSLRSDDSAVYYCARGTAVSTNLGLLFDLWGQGTLVSVSS VL: SYELTQPPSVSVSPGQTARITCSGDDLPKNYAYWYQQKSGQAPTLVINEDNKRPSGIPERFSGSSSGTMATLTISGAQVEDEADYYCFSADSSGTHSVFGGGTKVTVL",binds
12,"EBV_c40 (antibody, V domains shown, recombinant human IgG) VH: QVQMVQSGAEVKRPGDSVRVSCKASGYIFTNYHLHWVRQAPGQGLEWMGIVTPNGSRTNYAQKFKGRVIMSSEASTNTLYMDLSSLKSEDTAVYFCARARDLYGDSDFDYWGQGTPVMVSS VL: SYELSQPPSVSVSPGQTASVSCSGDSLGDKYVSWYQQRPGQSPVVVIYQDRKRPSGIPERFSGSNSGKAATLTISGAQAVDEATYFCQAWESSNVVFGGGTTLTVL",binds
13,"EBV_c40 with light chain D51K (antibody, V domains shown, source: Expi293 or ExpiCHO, recombinant; filtered culture supernatant) VH: QVQMVQSGAEVKRPGDSVRVSCKASGYIFTNYHLHWVRQAPGQGLEWMGIVTPNGSRTNYAQKFKGRVIMSSEASTNTLYMDLSSLKSEDTAVYFCARARDLYGDSDFDYWGQGTPVMVSS VL: SYELSQPPSVSVSPGQTASVSCSGDSLGDKYVSWYQQRPGQSPVVVIYQKRKRPSGIPERFSGSNSGKAATLTISGAQAVDEATYFCQAWESSNVVFGGGTTLTVL",binds
14,"EBV_c150 (antibody, V domains shown, recombinant human IgG) VH: QVLLVQSGAEVRKPGASVKLSCTASGYNFTNYYIHWVRQAPGQGLEWMGILNPTGGGTIYPHNFRGRVTMTRETSTSTAYMELKNLTSDDTAVYYCARVPPDDGYFDYWGQGALVTVSS VL: SYEPTQPPSVSVSPGQTARITCSGDALPKRYVYWYQQKSGQAPALVIYDDTKRPSGIPERFSGSSSGTMATLTINGAQVEDEADYYCYTTGSSVSHVVFGGGTKLTVL",binds
15,"EBV_c83 (antibody, V domains shown, recombinant human IgG) VH: QEQLVQSGTAVKKPGASVKVSCKTSRDTFTIYYIHWVRQAPGQGLEWMGIINPSGGNTSHAQKFQGRVTMTSDASTSTVYMELSSLRFEDTATYYCARVGYNWGSHSVSSPGAMDVWGQGTTVSVSS VL: SIELTQPSSVSVSPGQTATITCSGDVLPKQYAYWYQQKPGRAPMLVVYKDSERPSGISERFSGSSAGTAVTLTISAVQAEDEADYYCQSADTGGTYVIFGGGTKLTVL",binds
16,"EBV_c98 (antibody, V domains shown, recombinant human IgG) VH: QVQLVESGGGVVQPGRSLRLSCAASGITLSSYGMHWVRQAPGKGLEWVAVISYDGSKKDYGDSVKGRFTISRDNFKNTLYLQMSSLRAEDTAVYYCAKDTIFDGMDVWGQGTTVTVSS VL: DVVMTQSPLSLPGTLGQPASISCRSSQSLVYSDGNTYLNWFQQRPGQSPRRLIYQVSNRDSGVPDRFSGSGSGTDFTLTISKVEAEDVGVYYCMQSTHWPLTFGGGTKVEIK",binds
17,"EBV_c186 (antibody, V domains shown, recombinant human IgG) VH: QVHLVQSGTEVRKPGASVKISCETSGFNFSDYYVHWVRQAPGQGLEWMGIINAGGGSTSYAQRFRGRVTVTRDTSTRSVYMELRSLAPNDTAVYYCTRDRDQRLLFDYWGQGSLLIVSS VL: SSELTQPPSVSVSPGQTARITCSGDALPKNYAYWYQQKSGQAPVLVIYEDNKRPSGIPERFSGSSSGTTATLTISGAQMEDEGDYYCYSKDRFGGGTKVTVL",binds
18,"EBV_c3 (antibody, V domains shown, recombinant human IgG; source: Expi293 or ExpiCHO, recombinant; filtered culture supernatant) VH: QVHLVQSGAEVKKSGASVKVSCKASGFTFTNHDINWVRQAPGQGLEWMGWINPNSGNTGFAQKFRGRVTLTRNNSITTAYMELRGLTYEDTAIYYCARAFCNSDRCSPELFDPWGQGTLVTVSS VL: QSVLTQPPSVSADPGQRVTISCSGSSSNIGNSYVSWYQQLPGTAPRFLIYDNNKRTSGIPDRFSGSKSGTSATLAITGLQTGDEADYYCATWDTSLRGVVFGGGTKLTVL",binds
19,"EBV_c127 (antibody, V domains shown, recombinant human IgG) VH: QVHLVQSGAEVKKFGASVQVSCKASGFTFTNHDINWVRQAPGQGLEWMGWINPNSGNTGFAQKFRGRVTLTRNNSITTAYMELRGLRYEDTAIYYCARAFCNSDRCSPELFDPWGQGTLVTVSS VL: QSVLTQPPSVSADPGQRVTISCSGTSSNIGKNFVSWYQQFPGTAPKFLIYDNNKRASGIPDRFSGSKSGTSAILAITGLQTGDEADYYCATWDNSLRGVLFGGGTKLTVL",binds
20,"EBV_c77 (antibody, V domains shown, recombinant human IgG) VH: QVHLVQSGAEVKRSGASVKVSCKASGFTFTNHDINWVRQAPGQGLEWMGWINPNSGNTGFAQKFQGRVTLTRNNSITTAYMELRGLRYEDTAIYYCARAFCNSDRCSPELFDPWGQGTLVTVSS VL: QSVLTQPPSVSADPGQRVTISCSGTGSNIGNNYVSWYQQLPGTAPRFLIYDNNKRTSGIPDRFSGSKSGTSATLAITGLQTGDEADYYCATWDTSLRGVVFGGGTKLTVL",binds
21,"EBV_c138 (antibody, V domains shown, recombinant human IgG) VH: QVHLVQSGAEVKKSGASVKVSCKASGFTFTNHDINWVRQAPGQGLEWMGWINPNSGNTGFAQKFRGRVTLTRNNSITTAYMELRGLKYEDTAIYYCARAFCNSDRCSPELFDPWGQGTLVTVSS VL: QSVLTQPPSVSADPGHRVTISCSGTSSNIGNNYVSWYQQLPGTAPRFLIYDNNKRTSGIPDRFSGSKSGTSATLTISGLQTGDEADYYCATWDTSLRGVVFGGGTKLTVL",binds
